# Literature values in patent US10709784B2, “Metal chelating compositions and methods for controlling the growth or activities of a living cell or organism” (CHELATION PARTNERS INCORPORATED, priority 2011, dated 2020).
# Conditions: comparison value, molecular weight 80 kDa/mole
molecule,measurement,value
"lactoferrin: iron binding defence protein, molecular weight 80 kDa/mole (protein, UniProt P02788 20-710, looked up) Lactotransferrin: GRRRSVQWCAVSQPEATKCFQWQRNMRKVRGPPVSCIKRDSPIQCIQAIAENRADAVTLDGGFIYEAGLAPYKLRPVAAEVYGTERQPRTHYYAVAVVKKGGSFQLNELQGLKSCHTGLRRTAGWNVPIGTLRPFLNWTGPPEPIEAAVARFFSASCVPGADKGQFPNLCRLCAGTGENKCAFSSQEPYFSYSGAFKCLRDGAGDVAFIRESTVFEDLSDEAERDEYELLCPDNTRKPVDKFKDCHLARVPSHAVVARSVNGKEDAIWNLLRQAQEKFGKDKSPKFQLFGSPSGQKDLLFKDSAIGFSRVPPRIDSGLYLGSGYFTAIQNLRKSEEEVAARRARVVWCAVGEQELRKCNQWSGLSEGSVTCSSASTTEDCIALVLKGEADAMSLDGGYVYTAGKCGLVPVLAENYKSQQSSDPDPNCVDRPVEGYLAVAVVRRSDTSLTWNSVKGKKSCHTAVDRTAGWNIPMGLLFNQTGSCKFDEYFSQSCAPGSDPRSNLCALCIGDEQGENKCVPNSNERYYGYTGAFRCLAENAGDVAFVKDVTVLQNTDGNNNEAWAKDLKLADFALLCLDGKRKPVTEARSCHLAMAPNHAVVSRMDKVERLKQVLLHQQAKFGRNGSDCPDKFCLFQSETKNLLFNDNTECLARLHGKTTYEKYLGPQYVAGITNLKKCSTSPLLEACEFLRK",Fe bound per mole,2 atoms of Fe/mole
